Key:
[1] = test system: C[C@H]1O[C@@H](O[C@H]2[C@@H](O)C[C@H](O[C@H]3[C@@H](O)C[C@H](O[C@H]4CC[C@@]5(C)[C@H](CC[C@@H]6[C@@H]5CC[C@]5(C)[C@@H](C7=CC(=O)OC7)CC[C@]65O)C4)O[C@@H]3C)O[C@@H]2C)C[C@H](O)[C@@H]1O; assay: purified protein, by the assay type; conditions: other: 37 °C, 3.2 mM ATP, 50 nM proteoliposome, modified Michaelis-Menten fit, pH 7.4
Method: The Chifflet method is a colorimetric method that measures the amount of free inorganic phosphate (Pi) through the formation of ammonium molybdate and Pi complex, which produces a strong absorbance at 850 nm. The absorbance was measured on a 96-well plate using a CLARIOstar microplate reader (BMG Labtech, Ortenberg, Germany). […] The final concentrations of the proteoliposome and ATP were maintained at 50 nM and 3.2 mM, respectively. Orthovanadate was used as a control and run in parallel to the samples. Finally, the kinetic curves for ATPase activity were fit to a modified Michaelis-Menten equation (Equation (1)) [83]. Igor 6.2 Pro software (Wavemetrics, Tigard, OR, USA) was used for data analysis.(1) V=VmaxS/Km+S+Vbasal where V = Rate of ATP hydrolysis; Vmax = Maximum velocity of ATP hydrolysis; [S] = Substrate concentration; Km = Michaelis–Menten constant; and Vbasal = basal ATPase activity.

[2] = test system: C[C@]12CC[C@H](O)C[C@H]1CC[C@@H]1[C@@H]2C[C@@H](O)[C@]2(C)[C@@H](C3=CC(=O)OC3)CC[C@]12O; assay: purified protein, by the assay type; conditions: other: 37 °C, 3.2 mM ATP, 50 nM proteoliposome, modified Michaelis-Menten fit, pH 7.4

wild-type mouse Pgp (MDR3) (Mus musculus), sequence (chain, as listed by the source): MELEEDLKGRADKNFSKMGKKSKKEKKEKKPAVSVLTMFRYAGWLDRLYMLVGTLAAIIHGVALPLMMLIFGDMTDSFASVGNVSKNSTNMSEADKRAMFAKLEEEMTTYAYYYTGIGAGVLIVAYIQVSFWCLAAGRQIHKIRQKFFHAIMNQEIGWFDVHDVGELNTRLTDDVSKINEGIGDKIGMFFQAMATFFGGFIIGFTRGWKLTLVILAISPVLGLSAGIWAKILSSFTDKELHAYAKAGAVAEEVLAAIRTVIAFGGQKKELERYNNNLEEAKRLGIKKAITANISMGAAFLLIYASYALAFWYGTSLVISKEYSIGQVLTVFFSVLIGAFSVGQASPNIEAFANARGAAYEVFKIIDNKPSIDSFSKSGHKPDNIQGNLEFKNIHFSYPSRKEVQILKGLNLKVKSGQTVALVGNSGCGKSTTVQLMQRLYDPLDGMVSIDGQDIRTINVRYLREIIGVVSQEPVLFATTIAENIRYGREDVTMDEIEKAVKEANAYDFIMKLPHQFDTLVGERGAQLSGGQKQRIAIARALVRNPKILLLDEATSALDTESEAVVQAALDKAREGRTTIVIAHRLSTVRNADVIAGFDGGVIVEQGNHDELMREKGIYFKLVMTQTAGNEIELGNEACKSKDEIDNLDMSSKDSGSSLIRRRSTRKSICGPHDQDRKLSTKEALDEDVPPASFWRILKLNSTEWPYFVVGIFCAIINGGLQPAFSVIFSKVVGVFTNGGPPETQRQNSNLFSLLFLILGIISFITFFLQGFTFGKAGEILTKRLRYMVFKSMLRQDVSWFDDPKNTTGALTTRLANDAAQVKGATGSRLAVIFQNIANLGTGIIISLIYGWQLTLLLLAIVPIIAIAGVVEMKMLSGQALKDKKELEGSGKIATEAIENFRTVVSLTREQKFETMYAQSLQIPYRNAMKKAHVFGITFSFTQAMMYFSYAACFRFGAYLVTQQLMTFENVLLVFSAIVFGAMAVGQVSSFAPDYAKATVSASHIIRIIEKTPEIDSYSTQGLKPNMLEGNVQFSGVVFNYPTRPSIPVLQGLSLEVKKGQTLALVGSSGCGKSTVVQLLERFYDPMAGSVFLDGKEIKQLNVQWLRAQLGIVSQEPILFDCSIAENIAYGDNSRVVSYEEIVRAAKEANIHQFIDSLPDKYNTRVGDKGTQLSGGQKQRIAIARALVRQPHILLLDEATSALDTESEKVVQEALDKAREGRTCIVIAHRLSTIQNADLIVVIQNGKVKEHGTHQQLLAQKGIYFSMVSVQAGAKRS

Substance: wild-type mouse Pgp (MDR3) (Mus musculus)
- Km [1]: 99.19 ± 13.3 µM
- Km [2]: 426.82 ± 173.26 µM
- Vmax [2]: 541.92 ± 111 nmol/min/mg

— PMC12386283, “Elucidating the Complex Structural and Molecular Mechanisms Driving P-Glycoprotein-Mediated Transport of Cardiac Glycosides” (International Journal of Molecular Sciences, 2025)
